{"source": "paper PMC5156837", "target": "GST-TOC34 fusion protein (Arabidopsis thaliana) (UniProt Q38906)", "sequence (Q38906 whole entry, the tested form may be a part)": "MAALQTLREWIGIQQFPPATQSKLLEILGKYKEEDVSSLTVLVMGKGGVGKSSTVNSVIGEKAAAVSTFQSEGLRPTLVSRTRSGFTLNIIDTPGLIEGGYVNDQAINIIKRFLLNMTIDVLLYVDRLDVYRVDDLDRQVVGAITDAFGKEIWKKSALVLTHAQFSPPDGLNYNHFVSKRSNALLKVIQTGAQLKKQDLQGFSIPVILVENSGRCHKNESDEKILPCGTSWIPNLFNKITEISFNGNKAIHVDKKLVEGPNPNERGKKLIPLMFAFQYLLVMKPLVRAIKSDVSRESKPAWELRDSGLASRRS", "data": [{"substance": "CBL10-cMyc (thrombin-cleaved from GST-CBL10-cMyc) (from UniProt Q7FRS8 1-256)", "values": [{"measurement": "GTPase activity of TOC34 (free phosphate from GTP, 27°C, 30 min) with CBL10 and 5 mM CaCl2", "value": 0.5, "unit": "fold"}]}]}
